From the supplement of paper PMC10724198
“And” between values parts separate entries of the source, which are not always exact repeats. Identical values can stand only once. ± gives the standard deviation of the averaged measurements.

Legend:
Saccharomyces cerevisiae [1] = assay: protein stability index of tFT-peptide fusion in deletion strain of DOA10 (PSI (0-1 scale)); higher = more stable (slower turnover)
Description: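 MPS profiling in S. cerevisiae of two library types built from selected 12-aa C-degron peptides (IN1, IN2, LN1, LN3, VN2, R1-R5, W1-W3, Atg1 and Rpa12 C-termini): saturation mutagenesis libraries and C-terminal +1 capping libraries (13 aa). Each peptide is fused to the C-terminus of a sfGFP-mCherry timer, after a GGGS linker. Cells are FACS-sorted into 8 mCherry/sfGFP bins and sequenced. PSI runs from 0 (unstable) to 1 (stable), measured once in wild type and in the das1Δ or doa10Δ background.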

Saccharomyces cerevisiae [2] = assay: protein stability index of tFT-peptide fusion in wild type (PSI (0-1 scale)); higher = more stable (slower turnover); settings: genetic background: wild type
Saccharomyces cerevisiae [3] = assay: protein stability index of tFT-peptide fusion (C-terminal peptide) (PSI (0-1 scale)); higher = more stable (slower turnover); settings: genetic background: wild type; temperature: 30 C
Saccharomyces cerevisiae [4] = assay: as above
Description: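 MPS profiling in S. cerevisiae of the tFT-X12 degron library: putative degron peptides plus stable controls, 12 aa, fused to the C-terminus of a sfGFP-mCherry timer. Cells are FACS-sorted into 8 mCherry/sfGFP bins and deep-sequenced. PSI runs from 0 (unstable) to 1 (stable). Backgrounds are wild type, das1Δ and doa10Δ at 30 °C, and wild type, das1Δ, cdc34-1 and cdc53-1 at 37 °C; 2-3 technical replicates each.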

Saccharomyces cerevisiae [5] = assay: protein stability index of tFT-peptide fusion in deletion strain of DAS1 (PSI (0-1 scale)); higher = more stable (slower turnover)
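For protein stability index of tFT-peptide fusion (C-terminal peptide) in this document: PSI is a weighted mean of sequencing reads over stability bins, variants kept only with over 10 reads, mCherry proximal and sfGFP distal, peptide attached via GGGS linker.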
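For protein stability index of tFT-peptide fusion in deletion strain of DAS1 in this document: PSI is a weighted mean of each variant's read distribution over the sorted stability bins, computed only for variants having over 10 reads in total.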
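For protein stability index of tFT-peptide fusion in deletion strain of DOA10 in this document: PSI per variant is the weighted mean of its sequencing read distribution over the sorted stability bins, counting only variants with over 10 reads summed across bins.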
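For protein stability index of tFT-peptide fusion in wild type in this document: PSI derived as read-weighted mean over the 8 sorting bins, only variants exceeding 10 total reads kept, mCherry placed adjacent to the peptide and sfGFP distal.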

Work on AIFLPMCPLLLR yielded a protein stability index (Saccharomyces cerevisiae [1]) of 0.631 and a protein stability index (Saccharomyces cerevisiae [2]) of 0.278.
For AIHLPMCPLLLR, the protein stability index (Saccharomyces cerevisiae [1]) was 0.65 and the protein stability index (Saccharomyces cerevisiae [2]) was 0.278.
AITGPMCPLLLR was tested, and the protein stability index (Saccharomyces cerevisiae [1]) was 0.666 and the protein stability index (Saccharomyces cerevisiae [2]) was 0.497.
AITKPMCPLLLR showed a protein stability index (Saccharomyces cerevisiae [1]) of 0.651 and a protein stability index (Saccharomyces cerevisiae [2]) of 0.458.
With AITLGMCPLLLR the protein stability index (Saccharomyces cerevisiae [1]) was 0.661 and the protein stability index (Saccharomyces cerevisiae [2]) was 0.373.
With AITLNMCPLLLR the protein stability index (Saccharomyces cerevisiae [1]) was 0.662 and the protein stability index (Saccharomyces cerevisiae [2]) was 0.261.
For AITLPMCPLFLR, the protein stability index (Saccharomyces cerevisiae [1]) was 0.67 and the protein stability index (Saccharomyces cerevisiae [2]) was 0.184.
AITLPMCPLLER showed a protein stability index (Saccharomyces cerevisiae [1]) of 0.741 and a protein stability index (Saccharomyces cerevisiae [2]) of 0.648.
AITLPMCPLLLH was tested, and the protein stability index (Saccharomyces cerevisiae [1]) was 0.621 and the protein stability index (Saccharomyces cerevisiae [2]) was 0.502.
AITLPMCPLLLN was tested, and the protein stability index (Saccharomyces cerevisiae [1]) was 0.189 and the protein stability index (Saccharomyces cerevisiae [2]) was 0.135.
For AITLPMCPLLLRN, the protein stability index (Saccharomyces cerevisiae [1]) was 0.659 and the protein stability index (Saccharomyces cerevisiae [2]) was 0.281.
Sequence AITLPMCPYLLR has a protein stability index (Saccharomyces cerevisiae [1]) of 0.675 and a protein stability index (Saccharomyces cerevisiae [2]) of 0.545.
In the case of AITLPMCVLLLR, the protein stability index (Saccharomyces cerevisiae [1]) is reported as 0.608 and the protein stability index (Saccharomyces cerevisiae [2]) is reported as 0.0936.
AITLPMCWLLLR gave a protein stability index (Saccharomyces cerevisiae [1]) of 0.736 and a protein stability index (Saccharomyces cerevisiae [2]) of 0.0817.
Sequence AITLPQCPLLLR has a protein stability index (Saccharomyces cerevisiae [1]) of 0.661 and a protein stability index (Saccharomyces cerevisiae [2]) of 0.293.
For AITLPTCPLLLR, the protein stability index (Saccharomyces cerevisiae [1]) was 0.681 and the protein stability index (Saccharomyces cerevisiae [2]) was 0.289.
Work on AITLPYCPLLLR yielded a protein stability index (Saccharomyces cerevisiae [1]) of 0.666 and a protein stability index (Saccharomyces cerevisiae [2]) of 0.18.
With AITLQMCPLLLR the protein stability index (Saccharomyces cerevisiae [1]) was 0.619 and the protein stability index (Saccharomyces cerevisiae [2]) was 0.3.
AITLWMCPLLLR was tested, and the protein stability index (Saccharomyces cerevisiae [1]) was 0.611 and the protein stability index (Saccharomyces cerevisiae [2]) was 0.267.
AITSPMCPLLLR gave a protein stability index (Saccharomyces cerevisiae [1]) of 0.672 and a protein stability index (Saccharomyces cerevisiae [2]) of 0.491.
Work on AIVLPMCPLLLR yielded a protein stability index (Saccharomyces cerevisiae [1]) of 0.623 and a protein stability index (Saccharomyces cerevisiae [2]) of 0.229.
For ALYMCSVGCWFR, the protein stability index (Saccharomyces cerevisiae [1]) was 0.638 and the protein stability index (Saccharomyces cerevisiae [2]) was 0.351.
With ANTLPMCPLLLR the protein stability index (Saccharomyces cerevisiae [1]) was 0.649 and the protein stability index (Saccharomyces cerevisiae [2]) was 0.442.
In the case of CEVSLPILLFFR, the protein stability index (Saccharomyces cerevisiae [1]) is reported as 0.635 and the protein stability index (Saccharomyces cerevisiae [2]) is reported as 0.066.
CLPSLPILLFFR was tested, and the protein stability index (Saccharomyces cerevisiae [1]) was 0.632 and the protein stability index (Saccharomyces cerevisiae [2]) was 0.0469.
CLTSLPILLFFR gave a protein stability index (Saccharomyces cerevisiae [1]) of 0.636 and a protein stability index (Saccharomyces cerevisiae [2]) of 0.0745.
CLVFLPILLFFR showed a protein stability index (Saccharomyces cerevisiae [1]) of 0.416 and a protein stability index (Saccharomyces cerevisiae [2]) of 0.0802.
With CLVKLPILLFFR the protein stability index (Saccharomyces cerevisiae [1]) was 0.6 and the protein stability index (Saccharomyces cerevisiae [2]) was 0.06.
CLVSFPILLFFR showed a protein stability index (Saccharomyces cerevisiae [1]) of 0.583 and a protein stability index (Saccharomyces cerevisiae [2]) of 0.0594.
In the case of CLVSLMILLFFR, the protein stability index (Saccharomyces cerevisiae [1]) is reported as 0.398 and the protein stability index (Saccharomyces cerevisiae [2]) is reported as 0.256.
For CLVSLPELLFFR, the protein stability index (Saccharomyces cerevisiae [1]) was 0.692 and the protein stability index (Saccharomyces cerevisiae [2]) was 0.176.
Work on CLVSLPIHLFFR yielded a protein stability index (Saccharomyces cerevisiae [1]) of 0.669 and a protein stability index (Saccharomyces cerevisiae [2]) of 0.0666.
CLVSLPILFFFR was tested, and the protein stability index (Saccharomyces cerevisiae [1]) was 0.59 and the protein stability index (Saccharomyces cerevisiae [2]) was 0.499.
For CLVSLPILHFFR, the protein stability index (Saccharomyces cerevisiae [1]) was 0.667 and the protein stability index (Saccharomyces cerevisiae [2]) was 0.628.
CLVSLPILLFCR was tested, and the protein stability index (Saccharomyces cerevisiae [1]) was 0.25 and the protein stability index (Saccharomyces cerevisiae [2]) was 0.0631.
Work on CLVSLPILLFFM yielded a protein stability index (Saccharomyces cerevisiae [1]) of 0.479 and a protein stability index (Saccharomyces cerevisiae [2]) of 0.299.
CLVSLPILLHFR gave a protein stability index (Saccharomyces cerevisiae [1]) of 0.655 and a protein stability index (Saccharomyces cerevisiae [2]) of 0.286.
With CLVSLPILLKFR the protein stability index (Saccharomyces cerevisiae [1]) was 0.652 and the protein stability index (Saccharomyces cerevisiae [2]) was 0.178.
Work on CLVSLPILLSFR yielded a protein stability index (Saccharomyces cerevisiae [1]) of 0.631 and a protein stability index (Saccharomyces cerevisiae [2]) of 0.187.
Sequence CLVSLPILLVFR has a protein stability index (Saccharomyces cerevisiae [1]) of 0.527 and a protein stability index (Saccharomyces cerevisiae [2]) of 0.0722.
With CLVSLPILPFFR the protein stability index (Saccharomyces cerevisiae [1]) was 0.679 and the protein stability index (Saccharomyces cerevisiae [2]) was 0.0842.
For CLVSLPILVFFR, the protein stability index (Saccharomyces cerevisiae [1]) was 0.512 and the protein stability index (Saccharomyces cerevisiae [2]) was 0.0876.
For CLVSLPILWFFR, the protein stability index (Saccharomyces cerevisiae [1]) was 0.61 and the protein stability index (Saccharomyces cerevisiae [2]) was 0.566.
For CLVSLPIMLFFR, the protein stability index (Saccharomyces cerevisiae [1]) was 0.607 and the protein stability index (Saccharomyces cerevisiae [2]) was 0.0325.
For CLVSLPIPLFFR, the protein stability index (Saccharomyces cerevisiae [1]) was 0.643 and the protein stability index (Saccharomyces cerevisiae [2]) was 0.0774.
CLVSLPIVLFFR gave a protein stability index (Saccharomyces cerevisiae [1]) of 0.581 and a protein stability index (Saccharomyces cerevisiae [2]) of 0.0839.
With CLVSLPKLLFFR the protein stability index (Saccharomyces cerevisiae [1]) was 0.662 and the protein stability index (Saccharomyces cerevisiae [2]) was 0.0835.
For CLVSLPSLLFFR, the protein stability index (Saccharomyces cerevisiae [1]) was 0.667 and the protein stability index (Saccharomyces cerevisiae [2]) was 0.0935.
Work on CLVSSPILLFFR yielded a protein stability index (Saccharomyces cerevisiae [1]) of 0.645 and a protein stability index (Saccharomyces cerevisiae [2]) of 0.272.
KKHKKGQKQKIN showed a protein stability index (Saccharomyces cerevisiae [3]) of 0.175 ± 0.039, a protein stability index (Saccharomyces cerevisiae [4]; genetic background: cdc34-1, temperature: 37 C) of 0.535 ± 0.036 and a protein stability index (Saccharomyces cerevisiae [4]; genetic background: cdc53-1, temperature: 37 C) of 0.694 ± 0.011. For the same sequence, the protein stability index (Saccharomyces cerevisiae [4]; genetic background: das1 deletion, temperature: 30 C) was 0.622 ± 0.04, the protein stability index (Saccharomyces cerevisiae [4]; genetic background: das1 deletion, temperature: 37 C) was 0.725 ± 0.021 and the protein stability index (Saccharomyces cerevisiae [4]; genetic background: doa10 deletion, temperature: 30 C) was 0.0638 ± 0.032. The protein stability index (Saccharomyces cerevisiae [4]; genetic background: wild type, temperature: 30 C) was 0.0729 ± 0.029, the protein stability index (Saccharomyces cerevisiae [4]; genetic background: wild type, temperature: 37 C) was 0.149 ± 0.11 and the protein stability index (Saccharomyces cerevisiae [2]) was 0.113 and 0.11. The protein stability index (Saccharomyces cerevisiae [5]) was 0.66 and 0.611.
Sequence QDKRNHLIKLLN has a protein stability index (Saccharomyces cerevisiae [2]) of 0.0816 and a protein stability index (Saccharomyces cerevisiae [5]) of 0.592.
